Among the data in paper PMC11320570 are Kd values, retold here.

What is called Kd is the free concentration of one partner at which half of the binding sites on the other are occupied at equilibrium, for simple one-to-one binding. Higher therefore signals weaker binding.

Holding throughout (test): ELISA
(In general: An ELISA detects its analyte on a solid surface through an enzyme-linked reagent.)

One test has as its target 2H12 mouse antibody.
The next test has as its target 3H5 mouse antibody.
Test [1] deals with 513 engineered and humanized antibody.

A value given as a limit tells only on which side of the number the result lay.

As to “DENV-2 EDIII wild-type Fc-fusion antigen S298N; S300T”, the Kd was found to be 0.71 nM in the test with 2H12 mouse antibody, 0.82 nM in the test with 3H5 mouse antibody and 0.075 nM in test [1].

“DENV-2 EDIII wild-type Fc-fusion antigen S298N; S300T; H317N”: the figures for the Kd (with 3H5 mouse antibody; in test [1]) were 0.82 nM and 0.081 nM, respectively.

“DENV-2 EDIII wild-type Fc-fusion antigen S298N; S300T; V309N; E311T; H317N”: the Kd with 3H5 mouse antibody was 0.78 nM; in test [1] it was above 0.265 nM.
